Laboratory results published in paper PMC10397247.
One block for each binder: values may come before it.

What was measured:
Assay in all cases: two-hybrid library CCNG1;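 also: natural log of median RNA to DNA barcode read ratio; higher means stronger binding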
4H491-bN = biological target: T1, 4H491-bN
T1 chain: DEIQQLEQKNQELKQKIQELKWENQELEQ

4H48-bN = biological target: T2, 4H48-bN
T2 chain: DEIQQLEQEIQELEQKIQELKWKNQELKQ

4H780-bA = biological target: T3, 4H780-bA
T3 chain: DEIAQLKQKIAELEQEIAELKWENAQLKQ

4H797-bA = biological target: T4, 4H797-bA
T4 chain: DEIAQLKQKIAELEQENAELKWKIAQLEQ

4H2702-bA = biological target: T5, 4H2702-bA
T5 chain: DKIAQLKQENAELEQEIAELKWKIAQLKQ

4H2586-bA = biological target: T6, 4H2586-bA
T6 chain: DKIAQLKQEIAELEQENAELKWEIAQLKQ

4H918-bA = biological target: T7, 4H918-bA
T7 chain: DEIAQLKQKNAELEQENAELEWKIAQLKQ

4H575-bA = biological target: T8, 4H575-bA
T8 chain: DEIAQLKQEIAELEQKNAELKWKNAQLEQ

4H3926-bA = biological target: T9, 4H3926-bA
T9 chain: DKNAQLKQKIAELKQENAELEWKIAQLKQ

4H855-bA = biological target: T10, 4H855-bA
T10 chain: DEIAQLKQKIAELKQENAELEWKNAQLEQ

4H346-bA = biological target: T11, 4H346-bA
T11 chain: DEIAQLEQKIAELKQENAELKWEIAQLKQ

4H457-bA = biological target: T12, 4H457-bA
T12 chain: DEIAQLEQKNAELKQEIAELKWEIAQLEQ

4H754-bA = biological target: T13, 4H754-bA
T13 chain: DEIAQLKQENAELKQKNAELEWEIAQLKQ

4H4073-bA = biological target: T14, 4H4073-bA
T14 chain: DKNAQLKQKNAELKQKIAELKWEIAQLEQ

4H2627-bA = biological target: T15, 4H2627-bA
T15 chain: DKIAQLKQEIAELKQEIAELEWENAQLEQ

O2-bN = biological target: T16, O2-bN
T16 chain: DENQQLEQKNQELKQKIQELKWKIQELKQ

4H2673-bA = biological target: T17, 4H2673-bA
T17 chain: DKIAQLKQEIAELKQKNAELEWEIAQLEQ

4H683-bA = biological target: T18, 4H683-bA
T18 chain: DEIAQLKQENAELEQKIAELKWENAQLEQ

4H968-bA = biological target: T19, 4H968-bA
T19 chain: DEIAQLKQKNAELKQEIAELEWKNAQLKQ

4H3427-bA = biological target: T20, 4H3427-bA
T20 chain: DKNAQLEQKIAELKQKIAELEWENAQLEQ

4H3112-bA = biological target: T21, 4H3112-bA
T21 chain: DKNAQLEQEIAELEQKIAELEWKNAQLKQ

4H3010-bA = biological target: T22, 4H3010-bA
T22 chain: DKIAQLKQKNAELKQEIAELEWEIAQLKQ

4H953-bA = biological target: T23, 4H953-bA
T23 chain: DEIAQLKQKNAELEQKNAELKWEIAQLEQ

4H338-bH = biological target: T24, 4H338-bH
T24 chain: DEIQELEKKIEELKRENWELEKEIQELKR

4H717-bH = biological target: T25, 4H717-bH
T25 chain: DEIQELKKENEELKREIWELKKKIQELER

4H908-bH = biological target: T26, 4H908-bH
T26 chain: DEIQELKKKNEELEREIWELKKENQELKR

4H2618-bH = biological target: T27, 4H2618-bH
T27 chain: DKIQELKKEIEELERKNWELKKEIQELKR

4H797-bH = biological target: T28, 4H797-bH
T28 chain: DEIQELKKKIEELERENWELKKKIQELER

4H454-bH = biological target: T29, 4H454-bH
T29 chain: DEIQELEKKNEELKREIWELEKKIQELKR

4H3185-bH = biological target: T30, 4H3185-bH
T30 chain: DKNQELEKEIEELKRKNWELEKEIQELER

4H967-bH = biological target: T31, 4H967-bH
T31 chain: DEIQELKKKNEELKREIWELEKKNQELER

4H687-bH = biological target: T32, 4H687-bH
T32 chain: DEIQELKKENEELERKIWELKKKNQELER

4H3112-bH = biological target: T33, 4H3112-bH
T33 chain: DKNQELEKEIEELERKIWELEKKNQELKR

4H2729-bH = biological target: T34, 4H2729-bH
T34 chain: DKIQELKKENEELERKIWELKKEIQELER

4H3354-bH = biological target: T35, 4H3354-bH
T35 chain: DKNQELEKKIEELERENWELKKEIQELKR

4H4001-bH = biological target: T36, 4H4001-bH
T36 chain: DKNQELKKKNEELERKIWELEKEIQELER

4H331-bH = biological target: T37, 4H331-bH
T37 chain: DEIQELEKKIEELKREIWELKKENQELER

4H918-bH = biological target: T38, 4H918-bH
T38 chain: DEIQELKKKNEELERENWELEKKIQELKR

4H953-bH = biological target: T39, 4H953-bH
T39 chain: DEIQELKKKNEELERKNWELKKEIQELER

4H3782-bH = biological target: T40, 4H3782-bH
T40 chain: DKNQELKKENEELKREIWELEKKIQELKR

4H3855-bH = biological target: T41, 4H3855-bH
T41 chain: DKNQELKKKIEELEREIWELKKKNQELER

4H607-bH = biological target: T42, 4H607-bH
T42 chain: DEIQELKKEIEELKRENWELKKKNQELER

4H883-bH = biological target: T43, 4H883-bH
T43 chain: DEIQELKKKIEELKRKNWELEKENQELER

4H568-bH = biological target: T44, 4H568-bH
T44 chain: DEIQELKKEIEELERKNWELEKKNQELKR

4H754-bH = biological target: T45, 4H754-bH
T45 chain: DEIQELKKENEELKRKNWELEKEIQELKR

4H72-bH = biological target: T46, 4H72-bH
T46 chain: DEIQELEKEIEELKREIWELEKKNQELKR

4H2667-bH = biological target: T47, 4H2667-bH
T47 chain: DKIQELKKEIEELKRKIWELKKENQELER

4H3427-bH = biological target: T48, 4H3427-bH
T48 chain: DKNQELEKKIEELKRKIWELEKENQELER

4H48-bA = biological target: T49, 4H48-bA
T49 chain: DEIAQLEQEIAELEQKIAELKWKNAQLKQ

4H491-bA = biological target: T50, 4H491-bA
T50 chain: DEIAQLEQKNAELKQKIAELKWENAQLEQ

P4A-bP = biological target: T51, P4A-bP
T51 chain: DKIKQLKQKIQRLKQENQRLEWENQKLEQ

P7A-bP = biological target: T52, P7A-bP
T52 chain: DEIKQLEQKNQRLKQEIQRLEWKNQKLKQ

P5A-bP = biological target: T53, P5A-bP
T53 chain: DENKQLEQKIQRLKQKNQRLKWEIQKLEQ

P9A-bP = biological target: T54, P9A-bP
T54 chain: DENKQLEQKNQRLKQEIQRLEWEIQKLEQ

P8A-bP = biological target: T55, P8A-bP
T55 chain: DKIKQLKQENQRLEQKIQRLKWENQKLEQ

P6A-bP = biological target: T56, P6A-bP
T56 chain: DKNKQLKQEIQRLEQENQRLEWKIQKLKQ

4H496-bH = biological target: T57, 4H496-bH
T57 chain: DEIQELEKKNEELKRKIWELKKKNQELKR

4H462-bH = biological target: T58, 4H462-bH
T58 chain: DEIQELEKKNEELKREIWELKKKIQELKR

4H932-bH = biological target: T59, 4H932-bH
T59 chain: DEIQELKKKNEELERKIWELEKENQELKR

Binder: DEIQQLEQEIQELEQKIQELKWKNQELKQ [4H48-bN]
interaction score (4H491-bN): -0.799
interaction score (4H48-bN): 1.04

Binder: DKIAQLKQEIAELEQENAELKWEIAQLKQ [4H2586-bA]
interaction score (4H780-bA): -1.17
interaction score (4H797-bA): 0.763
interaction score (4H2702-bA): 0.531
interaction score (4H2586-bA): 1.48
interaction score (4H918-bA): -0.499
interaction score (4H575-bA): -0.515
interaction score (4H3926-bA): 1.9
interaction score (4H855-bA): 1.54
interaction score (4H346-bA): 0.976
interaction score (4H457-bA): 0.765
interaction score (4H754-bA): -1.06
interaction score (4H4073-bA): 0.255
interaction score (4H2627-bA): 0.292
interaction score (O2-bN): -0.327
interaction score (4H2673-bA): 0.53
interaction score (4H683-bA): 0.537
interaction score (4H968-bA): -1.91
interaction score (4H3427-bA): -0.911
interaction score (4H3112-bA): -1
interaction score (4H3010-bA): 1.28
interaction score (4H953-bA): 1.17

Binder: DEIQELEKKNEELKRKIWELKKKNQELKR [4H496-bH]
interaction score (4H496-bH): -0.197

Next, values leading:

interaction score (4H338-bH): 1.42
interaction score (4H717-bH): -0.283
interaction score (4H908-bH): -1.01
interaction score (4H2618-bH): 1.05
interaction score (4H797-bH): 0.872
interaction score (4H454-bH): 1.16
interaction score (4H3185-bH): 1.08
interaction score (4H967-bH): -0.781
interaction score (4H687-bH): 0.466
interaction score (4H3112-bH): -0.148
interaction score (4H2729-bH): 2
interaction score (4H3354-bH): 0.422
interaction score (4H4001-bH): 0.338
interaction score (4H331-bH): 1.85
interaction score (4H918-bH): 0.911
interaction score (4H48-bN): 1.54
interaction score (4H953-bH): 0.869
interaction score (4H3782-bH): -0.244
interaction score (4H3855-bH): -0.442
interaction score (4H607-bH): -1.63
interaction score (4H883-bH): 0.271
interaction score (4H568-bH): -0.291
interaction score (4H754-bH): -0.696
interaction score (4H72-bH): -0.76
interaction score (4H2667-bH): 0.678
interaction score (4H3427-bH): 1.07
Binder: DKIQELKKEIEELERKNWELKKEIQELKR [4H2618-bH]

interaction score (4H48-bA): 1.25
interaction score (4H491-bA): 1.09
Binder: DEIAQLEQEIAELEQKIAELKWKNAQLKQ [4H48-bA]

interaction score (P4A-bP): -1.09
interaction score (P7A-bP): -1.51
interaction score (P5A-bP): -1.59
interaction score (P9A-bP): -0.489
interaction score (P8A-bP): -0.918
interaction score (P6A-bP): -0.773
Binder: DKIKQLKQKIQRLKQENQRLEWENQKLEQ [P4A-bP]

interaction score (P4A-bP): 0.398
interaction score (4H717-bH): -0.479
interaction score (4H908-bH): -0.558
interaction score (4H797-bH): -0.61
interaction score (4H454-bH): 1.29
interaction score (4H967-bH): -2.28
interaction score (4H687-bH): -0.869
interaction score (4H4001-bH): -0.117
interaction score (4H918-bH): -2.1
interaction score (4H953-bH): -1.36
interaction score (4H462-bH): -0.256
interaction score (4H607-bH): -2.7
interaction score (4H883-bH): -1.67
interaction score (4H568-bH): -0.215
interaction score (4H754-bH): -0.348
interaction score (4H72-bH): -2.05
interaction score (4H932-bH): 0.0317
Binder: DKNQELKKKNEELERKIWELEKEIQELER [4H4001-bH]
